Experiment: yeast display, Sf9 membrane polyspecificity reagent, FACS + sequencing; frameworks hold sequencing errors
Summary of the method: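 Nanobodies from a synthetic yeast display library (Saccharomyces cerevisiae BJ5465), induced 36–48 hours with galactose, were stained 1 hour at 4 °C with 10% biotinylated, detergent-solubilized Sf9 membrane reagent, enriched on streptavidin microbeads, then FACS-sorted. Anti-HA (expression) and streptavidin (reagent binding) fluorescence set low and high (top ~1%) gates. Polyreactivity labels come from the gate of origin. Genes were colony-PCR amplified, MiSeq 2 × 250 sequenced and filtered by CDR length.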
For “QVQLVESGGGLVQAGGSLRLSCAASGSIFNKYAMGWYRQAPGKERELVAAISVSGTRTYYADSVKGRFTISRDNAKNTVYLQMNSLKPEDSAVYYCATKFFRTAYEYWGQGTQVTVSS”, the “polyreactivity (PSR sort gate)” value was “high polyreactivity”. For “QVQLVESGGGLVQAGGSLRLSCAASGSIFNLNAMGWYRQAPGTEREFVAGITYSAGRTYYADSVKGRFTISRDNAKNTVYLQMNSLKPVDTAVYYCAARIYSKFTSYGILDSWGQGTQVTVSS”, the “polyreactivity (PSR sort gate)” value was “high polyreactivity”. In the case of “QVQLVESGGGLVQAGGSLRLSCAASGSIFNLYALGWYRKAPGKERELVAAIRWDGGSTYYADSVKGRFTISRDNAKNTVYLQMNSLKPEDTAVYYCAAETVYFRLLILDYWGQGTQVTVSS”, the “polyreactivity (PSR sort gate)” value is reported as “high polyreactivity”. In the case of “QVQLVESGGGLVQAGGSLRLSCAASGSIFNLYTMGWYRQAPGKEMELVAVITGGGSTYYADSVKGRFTISRDNAKNTVYLQMNSLKPADTAVYYCAAKGPFYKSSRTGDYWGQGTQVTVSS”, the “polyreactivity (PSR sort gate)” value is reported as “low polyreactivity”. For “QVQLVESGGGLVQAGGSLRLSCAASGSIFNPYAMGWYRQAPGKQRELVAAISYTGGRTYYADSVKGRFTISRDNAQNTVYLQMNSLKPEDTAVYYCIADYIYSFYWSFYEYDYWGQGTQVTVSS”, the “polyreactivity (PSR sort gate)” value was “high polyreactivity”. With “QVQLVESGGGLVQAGGSLRLSCAASGSIFNPYDMGWYRQAPGKERELVAAIDWSGGSTYYADSVKGRFTISRDNAKNTVYLQMNSLKPEDTAVYYCNAESYQDTLFGADNDYDYWGQGTLVTVSS” the “polyreactivity (PSR sort gate)” value was “low polyreactivity”. With “QVQLVESGGGLVQAGGSLRLSCAASGSIFNQYAMGWYRQAPGKERELVARIRGSTGTTYYADSVKGRFTISRDNAKNTVYLQMNSLKPEDTAVYYCNAARYQGRSRFDYWGQGTQVTVSS” the “polyreactivity (PSR sort gate)” value was “high polyreactivity”. In the case of “QVQLVESGGGLVQAGGSLRLSCAASGSIFNRNAMGWYRQAPGKERELVAAITGRGGSTYYADSVKGRFTISRDNAKNTVYLQMDSLKPEDTAVYYCAAETLAPRAYYYWGQGTQVTVSS”, the “polyreactivity (PSR sort gate)” value is reported as “low polyreactivity”. With “QVQLVESGGGLVQAGGSLRLSCAASGSIFNRYAMGWYRQAPGKERELVAVIRWRDGSTYYADSVKGRFTISRDNAKNTVYLQMNSLKPEDTAVYYCAAVYWGEEYEYWGQGTQVTVSS” the “polyreactivity (PSR sort gate)” value was “low polyreactivity”. For “QVQLVESGGGLVQAGGSLRLSCAASGSIFNRYAMRWYRQAPGKERALVAAISRSGSTYYADSVKGRFTISRDNAKNTVYLQMNSLKPEDTAVYYCNARGTTHHTSYDYWGQGTQVTVSS”, the “polyreactivity (PSR sort gate)” value was “low polyreactivity”. With “QVQLVESGGGLVQAGGSLRLSCAASGSIFNSNAMGWYRQAPGKERELVAAITGSGGRTYYADSVKGRFTISRDNAKNTVYLQMNSLKPEDTAVYYCNAVTYSRRYAYYYWGQGTQVTVSS” the “polyreactivity (PSR sort gate)” value was “high polyreactivity”. For “QVQLVESGGGLVQAGGSLRLSCAASGSIFNSYAMGWYRQAPGKERELVAAISIRGTRTYYADSVKGRFTISRDNAKNTVYLQMNSLKPEDTAVYYCAADASYTEGMDYWGQGTQVTVSS”, the “polyreactivity (PSR sort gate)” value was “high polyreactivity”. With “QVQLVESGGGLVQAGGSLRLSCAASGSIFNTYAMGWYRQAPGKEREFVASISRSGGSTRYADSVKGRFTISRDNAKNTVYLQMNSLIPEDTAVYYCAASWLGASGIRYDYWGQGTQVTVSS” the “polyreactivity (PSR sort gate)” value was “high polyreactivity”. In the case of “QVQLVESGGGLVQAGGSLRLSCAASGSIFNTYVMGWYTQAPGKERELVAAITSSGGRTYYADSVKGRFTISRDNAKNTVYLQMNSLNPEDTAVYYCNTAQRWVGRNDYWGQGTQVTVSS”, the “polyreactivity (PSR sort gate)” value is reported as “high polyreactivity”. In the case of “QVQLVESGGGLVQAGGSLRLSCAASGSIFNVYVMGWYRQAPGKERELVASITWTTGSTYADSVKGRFTISRDNAKNSVYFQMNSLKPEDTAVYYCNAEFPEDTSDDYWGQGTQVNVSS”, the “polyreactivity (PSR sort gate)” value is reported as “low polyreactivity”. In the case of “QVQLVESGGGLVQAGGSLRLSCAASGSIFNYNAMGWYRQAPGKERELVAAMSGSGGRTYYADSVKGRFTISRDNAKYTVYLQMNSLKPEDTAVYYCATYVRITPYEYWGQGTQVTVSS”, the “polyreactivity (PSR sort gate)” value is reported as “high polyreactivity”. For “QVQLVESGGGLVQAGGSLRLSCAASGSIFNYYAMGWSRQAPGKERELVAAITTSGGNTYYADSVKGRFTISRDNAKNNVYLQMNILKPEDTAVYYCNADYRQITSYGFDYWGQGSQVTVSS”, the “polyreactivity (PSR sort gate)” value was “low polyreactivity”. With “QVQLVESGGGLVQAGGSLRLSCAASGSIFNYYAMGWYRPAPGKERELVAGITTSGGSTYYADSVKGRFTISRDNAKNTVYLQMNSLKPEDTAVYYCAAYDYISSTYFLDDYWGQGTQVTVSS” the “polyreactivity (PSR sort gate)” value was “low polyreactivity”. For “QVQLVESGGGLVQAGGSLRLSCAASGSIFNYYAMGWYRQAPGKEREFVADISGSGSSTYYADSVKGRFTISRDNAKNTVYLQMNSLKPEDTAVYYCNAEYYWGVGYYPYSDYGYWGQGTQVTVSS”, the “polyreactivity (PSR sort gate)” value was “low polyreactivity”. In the case of “QVQLVESGGGLVQAGGSLRLSCAASGSIFNYYAMGWYRQAPGKERELVAAISWNGGRTYYADSVKGRFTISRDNAKNTVYLQMNSLKPEDTAVYYCNAYPAGYVAHTYDYWGQGTQVTVSS”, the “polyreactivity (PSR sort gate)” value is reported as “high polyreactivity”. In the case of “QVQLVESGGGLVQAGGSLRLSCAASGSIFNYYAMGWYRQAPGKERELVAGITSVGSTYYADSVKGRFTISRDNAKNTVYLQMNSLKPEDTAVYYCAAGYWYGMYYWGQGTQVTVSS”, the “polyreactivity (PSR sort gate)” value is reported as “high polyreactivity”. With “QVQLVESGGGLVQAGGSLRLSCAASGSIFNYYAMGWYRQAPGKESELVAGITTSGGSTYYADSVKGRFTISRDNAKNTVYLQMNSLKPEDTAVYYCAAYDYISSTYFLYDYWGQGTQVTVSS” the “polyreactivity (PSR sort gate)” value was “low polyreactivity”. For “QVQLVESGGGLVQAGGSLRLSCAASGSIFNYYTMGWYRQAPGKRELVAAITWSGDSTYYADSVKGRFTISRDNAKNTVYLQMNSLKPEDTAVYYCAAAQARRYYWGQGTQVTVSS”, the “polyreactivity (PSR sort gate)” value was “high polyreactivity”. For “QVQLVESGGGLVQAGGSLRLSCAASGSIFPAYAMGWYRQAPGKERELVAAITRGGSTDYADSVKGRFTISRDNAKNTVYLQMNSLKPEDTAVYYCATGDGPSLFDYWGQGTQVTVSS”, the “polyreactivity (PSR sort gate)” value was “low polyreactivity”. With “QVQLVESGGGLVQAGGSLRLSCAASGSIFPDNAMGRYRQAAGKVRELVAAIDKGTGSTNYADSVKGRFTISRDNAKNSVYLQINSVKPEDTAGYYCDKGWLSPRGGAWYDDYWGQGTEVTVSS” the “polyreactivity (PSR sort gate)” value was “low polyreactivity”. With “QVQLVESGGGLVQAGGSLRLSCAASGSIFPDNAMGWDRQAPGKERELVAAITSGGGTYYADSVKGRFTISRDNAKNTVYLQMNSLKPEDTAVYYCNTEDYTQYEPGYYPPNYYWGQGTQVTVSS” the “polyreactivity (PSR sort gate)” value was “low polyreactivity”. With “QVQLVESGGGLVQAGGSLRLSCAASGSIFPDNAMGWYRQAPGKERELVAAITRGGSTYYADSVKGRFTISRDNAKNTVYLQMNSLKPEDTAVYYCAARRRYLWSYDYWGQGTQVTVSS” the “polyreactivity (PSR sort gate)” value was “high polyreactivity”. With “QVQLVESGGGLVQAGGSLRLSCAASGSIFPDNAMRWYRQAPGKERELVAAITRGGSTYYADSVKGRFTISRDNAKNTVYLQMNSLKPEDTAVYYCAARRRYLWSYDYWGQGTQVTVSS” the “polyreactivity (PSR sort gate)” value was “high polyreactivity”. In the case of “QVQLVESGGGLVQAGGSLRLSCAASGSIFPDYAMGGYRQAPGKERELVAAITWSGGNTYYADSVKGRFTISRDNAKNTVYLQMNSLKPEDTAVYYCAADISLHWYYYRRYNYWGQGTQVTVSS”, the “polyreactivity (PSR sort gate)” value is reported as “low polyreactivity”. For “QVQLVESGGGLVQAGGSLRLSCAASGSIFPENVMGWYRQAPGKERELVAAISWSGGSTYYADSVKGRFTISRDNAKNTVYLQMNSLKPEVTAVYYCNRVPSWRIDYDYWGQGTQVTVSS”, the “polyreactivity (PSR sort gate)” value was “low polyreactivity”. In the case of “QVQLVESGGGLVQAGGSLRLSCAASGSIFPGNGMGWYRQAPGKEMELVASITSGARTNYADSVKGRFTISRDNAKNTVYFPMNSLIPEDTAVYYCAADIKSSIRRAYDYWGQGSQVTVSS”, the “polyreactivity (PSR sort gate)” value is reported as “high polyreactivity”. For “QVQLVESGGGLVQAGGSLRLSCAASGSIFPGYAMGWYRQAPGKERELVAAITFSGGSTYYADSVKGRFTISRDNAKNTVYLLMISLKPEDTAVYYCAAPGWYGGYPSFYYWGQGTQVTVSS”, the “polyreactivity (PSR sort gate)” value was “low polyreactivity”. In the case of “QVQLVESGGGLVQAGGSLRLSCAASGSIFPGYAMGWYRQAPGKERELVATITWSGGSTYYADSVKGRFTISRDNAKNTVYLQMNSLKPEDTAVYYCAADGVDRYLRTISYLYGYWGQGTQVTVSS”, the “polyreactivity (PSR sort gate)” value is reported as “low polyreactivity”. For “QVQLVESGGGLVQAGGSLRLSCAASGSIFPGYAMGWYRQAPGKERELVATITWSGGSTYYADSVKGRFTISRDNAMNTVYLQMNSLKPEDTAVYYCNADSNWYYQLNYYGLYDYWGQGTQVTVSS”, the “polyreactivity (PSR sort gate)” value was “low polyreactivity”. For “QVQLVESGGGLVQAGGSLRLSCAASGSIFPGYAMGWYRQAPGKERELVATITYSDGSTYYADSVKRRFTISRDIATNTVFLQMNSLKPEDTAGYYCAVTYWWYYGYDYWGQGTQVTVSS”, the “polyreactivity (PSR sort gate)” value was “low polyreactivity”. With “QVQLVESGGGLVQAGGSLRLSCAASGSIFPHNAMGWYRQAPGKERELVAAISWRDVITYYADSVKGRFTISRDNAKNTVYLQMNSLKPEDTAVYYCAAELRVYGVDYEYWGQGTQVTVSS” the “polyreactivity (PSR sort gate)” value was “high polyreactivity”. In the case of “QVQLVESGGGLVQAGGSLRLSCAASGSIFPHYAMGWNRQAPGKERELVAAISSGGRTYYADSVKGRFTISRDNAKNTVYLQMNSLKPEDTAVYYCAARRIARKGYGYWGQGTQVTVSS”, the “polyreactivity (PSR sort gate)” value is reported as “high polyreactivity”. With “QVQLVESGGGLVQAGGSLRLSCAASGSIFPIYAMGWYRQAPGKERELVAAINRSGGSTYYADSGKGRFTISRDHAKTTVYLQMNSLKPEETAVYDCNADYGYHNQLFRGYYGWSSDHWGQGTQVTVSS” the “polyreactivity (PSR sort gate)” value was “low polyreactivity”. With “QVQLVESGGGLVQAGGSLRLSCAASGSIFPLYAMGWYRQAPGKERELVADITVSGGSTYYADSVKGRFTISRDNAKNTVYLQMNSLKPEDTAVYYCAKDNGPWFAYDYWGQGTQVTVSS” the “polyreactivity (PSR sort gate)” value was “low polyreactivity”. In the case of “QVQLVESGGGLVQAGGSLRLSCAASGSIFPQYAMGWYRQAPGKERELVAAITWSGSRTRYADSVKGRFTISRDNAKNTVYLQMNSLKPEDTAVYYCNAVNYRSSRDSGYWGQGTQVTVSS”, the “polyreactivity (PSR sort gate)” value is reported as “high polyreactivity”. For “QVQLVESGGGLVQAGGSLRLSCAASGSIFPQYAMGWYRQAPGKERELVASITDSGGRTYYADSVKGRFTISRDNAKNTVYLQMHSLKPEDTAVYYCAAVSLWWSDYYFVEYDYWGQGTQVTVSS”, the “polyreactivity (PSR sort gate)” value was “high polyreactivity”. With “QVQLVESGGGLVQAGGSLRLSCAASGSIFPQYAMGWYRQAPGTERELVDAITWSGSRTRYADSVKGRFTISRDNAKNTVYLQMNSLKPEDTAVYYCAARFNGQTYYYCGQGTQVTVSS” the “polyreactivity (PSR sort gate)” value was “high polyreactivity”. In the case of “QVQLVESGGGLVQAGGSLRLSCAASGSIFPRYAMGWYRQAPGKEREFVAAITGSGSSTYYADSVKGRFTISRDNAKNTVYLQMNSLKPEDTAVYYCAARKARPPFPHPFDYYWGQGTQVTVSS”, the “polyreactivity (PSR sort gate)” value is reported as “low polyreactivity”.

— the nanobody polyreactivity screen of Harvey et al. (2022)
